Experimental data as given in article PMC2683204.

Biological target: Fluorescein-maleamide labeled purified FN (UniProt P02751)
Assay: SDS-PAGE, non-reducing against reducing

stoichiometry N: 2
Substance: Fluorescein-maleamide labeled purified FN (from UniProt P02751 32-2477) (natural protein)
